The supplement of paper PMC10598134
± gives the standard deviation.

Experiment: collision cross section of unmodified peptide (TIMS, N2, iRT-aligned); higher = larger / more extended gas-phase ion
Method in brief: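 Collision cross section values rest on the Mason-Schamp equation applied to calibrated, run-aligned mobility data from synthetic peptides. Mobility (1/K0) was calibrated with three reference ions and aligned per run to the median iRT peptide deviation, and 1–3 technical replicates of the most abundant feature per charge state were averaged. Data came from a timsTOF Pro/HT in dda-PASEF mode (nitrogen, ~2.4 mbar) after a 120-min nanoflow C18 gradient at 60 °C.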

| Substance | collision cross section (charge state: 2) | collision cross section (charge state: 3) |
| --- | --- | --- |
| GGFQNRGGGSGGGGNYR | 412.29 Å² | 474.43 ± 1.4 Å² |
| SYHLQIVTK | 344.3 ± 0.59 Å² | 447.43 ± 1.7 Å² |
| VFLDCCNYITELR | 421.63 ± 0.67 Å² | – |
| DKALPLEAEVAPVK | 407.43 ± 3.2 Å² | 507.63 ± 4.6 Å² |
| INNFSADIKDSK | 403.18 ± 2.5 Å² | 450.51 ± 4 Å² |
| SGKFTQQDIDEAK | 412.77 ± 2.3 Å² | 486.03 ± 4.9 Å² |
| IYHPNVDK | 337.77 ± 0.73 Å² | 425.77 ± 2 Å² |
| GFPGAPGLPGLK | 357.61 ± 0.4 Å² | – |
| IGNSYFKEEK | 377.24 ± 0.91 Å² | 453.77 ± 3.2 Å² |
| GFLQPPPLRQPR | 397.31 ± 0.59 Å² | 451.27 ± 5.3 Å² |
| GEQGEPGAPGIRTGIQGLK | 452.7 ± 0.99 Å² | 505.34 ± 2.1 Å² |
| HSPTLPEPGGLRLELPLSR | – | 583.19 Å² |
| IPPTYQIR | 332.62 ± 0.59 Å² | – |
| DESFLGKLGGTLAR | 409.59 ± 1.4 Å² | 475.21 ± 2.7 Å² |
| VGYPGPSGPLGAR | 357.93 ± 0.58 Å² | 439.38 ± 0.85 Å² |
| RGVGAGAIAK | 327.01 ± 0.73 Å² | – |
| GGGGGGGGGAPRGR | 341.22 ± 1.4 Å² | 426.09 ± 5.4 Å² |
| LAEEENKAK | 348.48 ± 1.2 Å² | 421.19 ± 4.7 Å² |
| LVLPSQAQARLPSGEVVK | 482.13 ± 2.1 Å² | 526.02 ± 0.85 Å² |
| FIHQQPQSSSPVYGSSAK | – | 514.9 ± 0.21 Å² |
| LGSPSGKTGTCR | 383.86 ± 1.2 Å² | 458.08 ± 4.7 Å² |
| IPQEKCILQTDVK | 428.77 ± 2.5 Å² | 470.55 ± 3.7 Å² |

| Substance | collision cross section (charge state: 2) | collision cross section (charge state: 3) |
| --- | --- | --- |
| IVEKYGYTHLSAGELLR | 489.48 ± 3 Å² | 538.24 ± 2.8 Å² |
| PGSPGPPGSPGPR | 347.56 ± 0.41 Å² | 430.78 ± 12 Å² |
| AGPNASIISLKSDK | 408.7 ± 1.4 Å² | 483.51 ± 6.7 Å² |
| GETASKLQSEISR | 404.79 ± 2.8 Å² | 463.95 ± 4.6 Å² |
| RGATPPAPPR | 338.24 ± 0.44 Å² | 461.07 ± 2.4 Å² |
| GTISAPGKVVTAAAQAK | 464.56 ± 3.2 Å² | 518.69 ± 4.3 Å² |
| FSPPSSSLQPGK | 371.43 ± 0.67 Å² | – |
| HTLLRAPAPELLPANVAGR | – | 530.02 ± 1.9 Å² |
| AEGYEVAHGGR | 358.34 ± 0.55 Å² | 438.28 ± 0.89 Å² |
| TTLTSDESVKDHTTAGR | – | 528.1 ± 0.21 Å² |
| LLFSNTAAQKLR | 416.62 ± 2.1 Å² | 485.85 ± 3.4 Å² |
| SGRGGNFGFGDSR | 375.82 ± 0.59 Å² | 452.15 ± 2.9 Å² |
| DAEAAEATAEGALKAEK | 458.36 ± 2.4 Å² | 544.24 ± 2.9 Å² |
| VDIDVPDVNIEGPDAKLK | 470.4 ± 2.9 Å² | 542.58 ± 2 Å² |
| VFIGNLNTLVVKKK | – | 483.04 ± 2.6 Å² |
| DYNVTANSK | 328.46 ± 2 Å² | – |
| ASAISIKLGSSK | 373.11 ± 0.93 Å² | 446.31 ± 5.8 Å² |
| VGVEAKQPNSAIR | 404.68 ± 1.4 Å² | 493.5 ± 7.8 Å² |
| LPEYPQVDDLLLR | 420.84 ± 0.76 Å² | – |
| AYPLADAHLTK | 383.63 ± 0.16 Å² | 452.45 ± 1.1 Å² |
| TPLTHALPGLSEQEGQK | – | 495.4 ± 0.86 Å² |
| GRGAPPPPPSR | 341.09 ± 1.1 Å² | 436.88 ± 3.2 Å² |

| Substance | collision cross section (charge state: 2) | collision cross section (charge state: 3) |
| --- | --- | --- |
| LGDVYVNDAFGTAHR | 434.69 ± 0.66 Å² | 501.14 ± 0.88 Å² |
| DSLGVSFPEELACK | 418.18 ± 0.66 Å² | – |
| GAPGPQGPPGPPGK | 357.97 ± 0.58 Å² | – |
| GRGGPGPAQR | 323.16 ± 0.71 Å² | 428.92 ± 5.9 Å² |
| VYIASSSGSTAIKK | 426.35 ± 1.9 Å² | 494.89 ± 3.4 Å² |
| GEPGLPGHPGK | 338.84 ± 0.58 Å² | – |
| GEGGFGGRGGGR | 340.19 ± 0.38 Å² | 426.14 ± 4 Å² |
| TAIQAAGYPDK | 362.76 ± 1.1 Å² | – |
| GLQGPPGK | 292.79 ± 0.8 Å² | – |
| SKLLFSNTAAQK | 393.75 ± 6 Å² | 444.64 ± 5 Å² |
| GARLPGPVSSAR | 359.36 ± 0.74 Å² | 465.32 ± 9.3 Å² |
| GEYFGEK | 311.09 ± 0.97 Å² | – |
| TGPPGSTGSR | 307.73 ± 0.78 Å² | – |
| DYQPGITFIVVQK | 401.42 ± 0.24 Å² | 485.74 Å² |
| GERGPPGPPGK | 325.96 ± 0.79 Å² | 437.43 ± 1.2 Å² |
| SHLRHAIPSAER | 388.74 ± 0.39 Å² | 458.41 ± 2.7 Å² |
| DFSLTSSSQTPGATK | 412.17 ± 0.66 Å² | 461.25 ± 8.8 Å² |
| PDTQYTGR | 315.91 ± 0.73 Å² | – |
| SEGFDTYR | 330.1 ± 0.73 Å² | – |
| PPGFSPFRSSR | 357.9 ± 0.86 Å² | 455.41 ± 1.7 Å² |
| VEPGSLESSPGLGRGR | 425.39 ± 1.8 Å² | 497.45 ± 0.11 Å² |
| GEPGQGLRGLQGPPGK | 417.18 ± 1.2 Å² | 443.35 ± 0.85 Å² |

| Substance | collision cross section (charge state: 2) | collision cross section (charge state: 3) |
| --- | --- | --- |
| LDLSSLAYSGK | 363.06 ± 1.2 Å² | – |
| PGPRGQR | 296.23 ± 0.53 Å² | – |
| QGNAVTLGDYYQGR | 415.78 ± 0.66 Å² | – |
| SPSDSGYSYETIGKTTK | 441.25 ± 2.3 Å² | 517.54 ± 3.3 Å² |
| PAVTAAPK | 290.54 ± 0.15 Å² | – |
| GDAGEPGR | 283.75 ± 1.9 Å² | – |
| YEEIVKEVSTYIK | 443.47 ± 2.8 Å² | 492.72 ± 2.3 Å² |
| RGPPGAK | 308.91 ± 1.4 Å² | – |
| VIVGGSSEYK | 346.7 ± 0.59 Å² | – |
| IYELAAGGTAVGTGLNTR | 443.72 ± 1 Å² | – |
| IEDEQALGSQLQK | 401.79 ± 0.14 Å² | 493.77 ± 0.29 Å² |
| SGGGYGGDRSSGGGYSGDR | – | 476.79 ± 0.56 Å² |
| VLPSITTEILK | 373.13 ± 0.14 Å² | – |
| DTGEKLTVAENEAETK | 436.86 ± 2.7 Å² | 520.99 ± 1.8 Å² |
| TAGSSGVTAGRPRPTAR | – | 538.39 ± 0.86 Å² |
| GGGDRGGFGPGK | 338.46 ± 2.1 Å² | 414.71 ± 5.6 Å² |
| GLPGEPGPRGLLGPK | 406.63 ± 0.39 Å² | 459.1 ± 1.2 Å² |
| ASTPGAAAQIQEVK | 395.93 ± 0.14 Å² | – |
| MFLSFPTTK | 348.96 ± 0.14 Å² | – |
| KFGVLSDNFK | 368.49 ± 1.5 Å² | 446.92 ± 3.4 Å² |
| AIQLNPSYIR | 373.91 ± 2.8 Å² | – |
| GEKGLPGLAGDHGEFGEK | – | 564.38 ± 1.3 Å² |

| Substance | collision cross section (charge state: 2) | collision cross section (charge state: 3) |
| --- | --- | --- |
| TFGKAAGPSLSHTSGGTQSK | 462.76 ± 2.3 Å² | 520.05 ± 2.3 Å² |
| PARGLYSR | 333.72 ± 0.072 Å² | 420.97 ± 6 Å² |
| GGRGTPGK | 284.56 ± 17 Å² | – |
| LQDVSGQLSSSKK | 403.09 ± 1.5 Å² | 463.47 ± 6.3 Å² |
| VILENIASHEPR | 417.03 ± 1.4 Å² | 473.55 ± 0.22 Å² |
| DAIHFYNKSLAEHR | 440.43 ± 2.3 Å² | 501.63 ± 3.9 Å² |
| TQDQISNIKYHEEFEK | 459.39 Å² | 550.5 ± 0.31 Å² |
| YIEIYVQKVNPSR | 435.38 ± 2.7 Å² | 505.68 ± 2.1 Å² |
| LEKTIDDLEEK | 403.94 ± 1.9 Å² | 470.73 ± 4.5 Å² |
| ITESVAETAQTIK | 394.65 ± 0.14 Å² | – |
| GGSAGGRGFFR | 360.79 ± 0.54 Å² | 432.59 ± 6.7 Å² |
| LGTTPSVYGGAGGRGIR | 444.42 ± 1.7 Å² | 523.45 ± 1.1 Å² |
| VYSGHQGR | 325.3 ± 0.79 Å² | 409 ± 1.1 Å² |
| GVQYLNEIK | 351.72 ± 0.74 Å² | – |
| DNNNSNNRGSYNR | – | 461.19 ± 2.6 Å² |
| SNEEGSEEKGPEVR | 397.33 ± 0.57 Å² | 477.66 ± 4.4 Å² |
| GDIGETGVPGAEGPR | 381.04 ± 0.92 Å² | – |
| GQQGEPGPK | 313.75 ± 0.93 Å² | – |
| SPPLPEHQKIPCNSAEPK | – | 527.39 ± 1.3 Å² |
